Data: patent US5773001 (American Cyanamid Company, dated 1998)
Where two headings read alike, the source gives them in different places.

Experiments:
CD33 antigen (human) [1] = biological target: CD33 antigen (human) (UniProt P20138)
CD33 antigen (human) [2] = biological target: CD33 antigen (human) (UniProt P20138); experiment: competition with 125I-labelled native antibody on HEL 92.1.7 cells; IC50 (reference) / IC50 (sample)
CD33 antigen (human) [3] = biological target: CD33 antigen (human) (UniProt P20138); remark: listed apart in the source
[4] = biological target: T1, glycoprotein antigen present on colon cancer cells, recognized by A33 (Homo sapiens (Human)) (UniProt Q99795)
T1 sequence: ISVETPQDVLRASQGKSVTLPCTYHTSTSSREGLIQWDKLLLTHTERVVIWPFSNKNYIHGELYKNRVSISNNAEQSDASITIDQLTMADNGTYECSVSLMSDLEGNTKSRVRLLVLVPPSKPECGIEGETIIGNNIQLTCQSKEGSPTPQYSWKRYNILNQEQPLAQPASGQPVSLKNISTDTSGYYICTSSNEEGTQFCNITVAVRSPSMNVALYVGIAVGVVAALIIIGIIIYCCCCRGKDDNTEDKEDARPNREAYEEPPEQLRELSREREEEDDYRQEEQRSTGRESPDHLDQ

[5] = biological target: T1, glycoprotein antigen present on colon cancer cells, recognized by A33 (Homo sapiens (Human)); experiment: competition with 125I-labelled native antibody on COLO 205 cells; IC50 (reference) / IC50 (sample)
CD33 antigen (human) [6] = biological target: CD33 antigen (human) (UniProt P20138); remark: listed apart in the source
CD33 antigen (human) [7] = biological target: CD33 antigen (human) (UniProt P20138); remark: listed apart in the source
[8] = biological target: T1, glycoprotein antigen present on colon cancer cells, recognized by A33 (Homo sapiens (Human)); remark: listed apart in the source
CD33 antigen (human) [9] = biological target: CD33 antigen (human) (UniProt P20138); remark: listed apart in the source
CD33 antigen (human) [10] = biological target: CD33 antigen (human) (UniProt P20138); remark: listed apart in the source
CD33 antigen (human) [11] = biological target: CD33 antigen (human) (UniProt P20138); remark: listed apart in the source
CD33 antigen (human) [12] = biological target: CD33 antigen (human) (UniProt P20138); remark: listed apart in the source
CD33 antigen (human) [13] = biological target: CD33 antigen (human) (UniProt P20138); remark: listed apart in the source
CD33 antigen (human) [14] = biological target: CD33 antigen (human) (UniProt P20138); remark: listed apart in the source
CD33 antigen (human) [15] = biological target: CD33 antigen (human) (UniProt P20138); remark: listed apart in the source
CD33 antigen (human) [16] = biological target: CD33 antigen (human) (UniProt P20138); remark: listed apart in the source
CD33 antigen (human) [17] = biological target: CD33 antigen (human) (UniProt P20138); remark: listed apart in the source
CD33 antigen (human) [18] = biological target: CD33 antigen (human) (UniProt P20138); experiment: competition with 125I-labelled native antibody on HEL 92.1.7 cells; IC50 (reference) / IC50 (sample); remark: listed apart in the source
CD33 antigen (human) [19] = biological target: CD33 antigen (human) (UniProt P20138); remark: listed apart in the source
CD33 antigen (human) [20] = biological target: CD33 antigen (human) (UniProt P20138); remark: listed apart in the source
CD33 antigen (human) [21] = biological target: CD33 antigen (human) (UniProt P20138); remark: listed apart in the source
CD33 antigen (human) [22] = biological target: CD33 antigen (human) (UniProt P20138); remark: listed apart in the source
CD33 antigen (human) [23] = biological target: CD33 antigen (human) (UniProt P20138); remark: listed apart in the source
CD33 antigen (human) [24] = biological target: CD33 antigen (human) (UniProt P20138); remark: listed apart in the source
CD33 antigen (human) [25] = biological target: CD33 antigen (human) (UniProt P20138); remark: listed apart in the source

## Conjugate of 4-(3-formylphenoxy)butanoic acid (8) condensed with Calicheamicin N-acetyl gamma dimethyl hydrazide and m-P67.6 (antibody)
CD33 antigen (human) [1]
  In vitro IC50 (3H-thymidine incorporation): 0.38 ng/mL
CD33 antigen (human) [2]
  Rel. Affinity: 1

## Conjugate of 4-(4-acetyl-2,6-dimethoxyphenoxy)butanoic acid (14) condensed with Calicheamicin N-acetyl gamma dimethyl hydrazide and m-P67.6 (antibody)
CD33 antigen (human) [3]
  In vitro IC50 (3H-thymidine incorporation): 0.015 ng/mL
CD33 antigen (human) [2]
  Rel. Affinity: 1.18

## Conjugate of 4-(4-acetylphenoxy)butanoic acid (7) condensed with calicheamicin N-acetyl gamma dimethyl hydrazide and h-A33 (antibody)
[4]
  In vitro IC50 (3H-thymidine incorporation): 4.03 ng/mL
[5]
  Rel. Affinity: 1.13

## Conjugate of 4-formylbenzenepropanoic acid (12) condensed with Calicheamicin N-acetyl gamma dimethyl hydrazide and m-P67.6 (antibody)
CD33 antigen (human) [6]
  In vitro IC50 (3H-thymidine incorporation): 0.12 ng/mL
CD33 antigen (human) [2]
  Rel. Affinity: 0.73

## Conjugate of 4-(4-formyl-2-methoxyphenoxy)butanoic acid (11) condensed with Calicheamicin N-acetyl gamma dimethyl hydrazide and m-P67.6 (antibody)
CD33 antigen (human) [7]
  In vitro IC50 (3H-thymidine incorporation): 0.13 ng/mL
CD33 antigen (human) [2]
  Rel. Affinity: 0.22

## Conjugate of 4-(4-acetylphenoxy)butanoic acid (7) condensed with calicheamicin gamma dimethyl hydrazide and h-A33 (antibody)
[8]
  In vitro IC50 (3H-thymidine incorporation): 3.55 ng/mL
[5]
  Rel. Affinity: 0.91

## Conjugate of 4-(4-acetyl-2-methoxyphenoxy)butanoic acid (15) condensed with Calicheamicin N-acetyl gamma dimethyl hydrazide and m-P67.6 (antibody)
CD33 antigen (human) [9]
  In vitro IC50 (3H-thymidine incorporation): 0.029 ng/mL
CD33 antigen (human) [2]
  Rel. Affinity: 0.8

## Conjugate of 4-4-(3-oxobutyl)phenoxy!butanoic acid (16) condensed with Calicheamicin N-acetyl gamma dimethyl hydrazide and m-P67.6 (antibody)
CD33 antigen (human) [10]
  In vitro IC50 (3H-thymidine incorporation): 9 ng/mL

## Conjugate of 4-4-(3-oxopropyl)phenoxy!butanoic acid (18) condensed with Calicheamicin N-acetyl gamma dimethyl hydrazide and m-P67.6 (antibody)
CD33 antigen (human) [11]
  In vitro IC50 (3H-thymidine incorporation): 0.62 ng/mL
CD33 antigen (human) [2]
  Rel. Affinity: 1.21

## Conjugate of 4-(2-acetyl-1-naphthalenyl)oxy! butanoic acid (20) condensed with Calicheamicin N-acetyl gamma dimethyl hydrazide and m-P67.6 (antibody)
CD33 antigen (human) [12]
  In vitro IC50 (3H-thymidine incorporation): 0.0067 ng/mL
CD33 antigen (human) [2]
  Rel. Affinity: 0.66

## Conjugate of 4-(2,3-Dimethoxy-5-formylphenoxy)butanoic acid (13) condensed with Calicheamicin N-acetyl gamma dimethyl hydrazide and m-P67.6 (antibody)
CD33 antigen (human) [13]
  In vitro IC50 (3H-thymidine incorporation): 0.062 ng/mL
CD33 antigen (human) [2]
  Rel. Affinity: 1.08

## Conjugate of 4-(2-acetyl-5-methoxyphenoxy!butanoic acid (17) condensed with Calicheamicin N-acetyl gamma dimethyl hydrazide and m-P67.6 (antibody)
CD33 antigen (human) [14]
  In vitro IC50 (3H-thymidine incorporation): 0.0098 ng/mL
CD33 antigen (human) [2]
  Rel. Affinity: 1.2

## Conjugate of 4-(4-acetyl-2-methylphenoxy)butanoic acid (10) condensed with Calicheamicin N-acetyl gamma dimethyl hydrazide and m-P67.6 (antibody)
CD33 antigen (human) [15]
  In vitro IC50 (3H-thymidine incorporation): 0.041 ng/mL
CD33 antigen (human) [2]
  Rel. Affinity: 1.07

## Conjugate of 4-(4-formylphenoxy)butanoic acid (9) condensed with Calicheamicin N-acetyl gamma dimethyl hydrazide and m-P67.6 (antibody)
CD33 antigen (human) [16]
  In vitro IC50 (3H-thymidine incorporation): 0.087 ng/mL
CD33 antigen (human) [2]
  Rel. Affinity: 0.7

B1: Conjugate of 4-(4-acetyl-2-methylphenoxy)butanoic acid (10) condensed with Calicheamicin N-acetyl gamma dimethyl hydrazide and h-P67.6 (antibody, V domains shown)
VH: EVQLVQSGAEVKKPGSSVKVSCKASGYTITDSNIHWVRQAPGQSLEWIGYIYPYNGGTDYNQKFKNRATLTVDNPTNTAYMELSSLRSEDTDFYYCVNGNPWLAYWGQGTLVTVSS
VL: DIQLTQSPSTLSASVGDRVTITCRASESLDNYGIRFLTWFQQKPGKAPKLLMYAASNQGSGVPSRFSGSGSGTEFTLTISSLQPDDFATYYCQQTKEVPWSFGQGTKVEVKR
modifications: drug-linker amide on lysine side chains, sites not stated; drug-linker amide on lysine side chains, sites not stated
CD33 antigen (human) [17]
  In vitro IC50 (3H-thymidine incorporation): 0.45 ng/mL
CD33 antigen (human) [18]
  Rel. Affinity: 1.16

B2: Conjugate of 4-(4-formyl-2-methoxyphenoxy)butanoic acid (11) condensed with Calicheamicin N-acetyl gamma dimethyl hydrazide and h-P67.6 (antibody, V domains shown)
VH: EVQLVQSGAEVKKPGSSVKVSCKASGYTITDSNIHWVRQAPGQSLEWIGYIYPYNGGTDYNQKFKNRATLTVDNPTNTAYMELSSLRSEDTDFYYCVNGNPWLAYWGQGTLVTVSS
VL: DIQLTQSPSTLSASVGDRVTITCRASESLDNYGIRFLTWFQQKPGKAPKLLMYAASNQGSGVPSRFSGSGSGTEFTLTISSLQPDDFATYYCQQTKEVPWSFGQGTKVEVKR
modifications: drug-linker amide on lysine side chains, sites not stated; drug-linker amide on lysine side chains, sites not stated
CD33 antigen (human) [19]
  In vitro IC50 (3H-thymidine incorporation): 3.8 ng/mL
CD33 antigen (human) [18]
  Rel. Affinity: 0.73

B3: Conjugate of 4-formylbenzenepropanoic acid (12) condensed with Calicheamicin N-acetyl gamma dimethyl hydrazide and h-P67.6 (antibody, V domains shown)
VH: EVQLVQSGAEVKKPGSSVKVSCKASGYTITDSNIHWVRQAPGQSLEWIGYIYPYNGGTDYNQKFKNRATLTVDNPTNTAYMELSSLRSEDTDFYYCVNGNPWLAYWGQGTLVTVSS
VL: DIQLTQSPSTLSASVGDRVTITCRASESLDNYGIRFLTWFQQKPGKAPKLLMYAASNQGSGVPSRFSGSGSGTEFTLTISSLQPDDFATYYCQQTKEVPWSFGQGTKVEVKR
modifications: drug-linker amide on lysine side chains, sites not stated; drug-linker amide on lysine side chains, sites not stated
CD33 antigen (human) [20]
  In vitro IC50 (3H-thymidine incorporation): 1 ng/mL
CD33 antigen (human) [18]
  Rel. Affinity: 0.73

B4: Conjugate of 4-(2,3-dimethoxy-5-formylphenoxy)butanoic acid (13) condensed with Calicheamicin N-acetyl gamma dimethyl hydrazide and h-P67.6 (antibody, V domains shown)
VH: EVQLVQSGAEVKKPGSSVKVSCKASGYTITDSNIHWVRQAPGQSLEWIGYIYPYNGGTDYNQKFKNRATLTVDNPTNTAYMELSSLRSEDTDFYYCVNGNPWLAYWGQGTLVTVSS
VL: DIQLTQSPSTLSASVGDRVTITCRASESLDNYGIRFLTWFQQKPGKAPKLLMYAASNQGSGVPSRFSGSGSGTEFTLTISSLQPDDFATYYCQQTKEVPWSFGQGTKVEVKR
modifications: drug-linker amide on lysine side chains, sites not stated; drug-linker amide on lysine side chains, sites not stated
CD33 antigen (human) [21]
  In vitro IC50 (3H-thymidine incorporation): 1.1 ng/mL
CD33 antigen (human) [18]
  Rel. Affinity: 1.16

B5: Conjugate of 4-(4-acetyl-2,6-dimethoxyphenoxy)butanoic acid (14) condensed with Calicheamicin N-acetyl gamma dimethyl hydrazide and h-P67.6 (antibody, V domains shown)
VH: EVQLVQSGAEVKKPGSSVKVSCKASGYTITDSNIHWVRQAPGQSLEWIGYIYPYNGGTDYNQKFKNRATLTVDNPTNTAYMELSSLRSEDTDFYYCVNGNPWLAYWGQGTLVTVSS
VL: DIQLTQSPSTLSASVGDRVTITCRASESLDNYGIRFLTWFQQKPGKAPKLLMYAASNQGSGVPSRFSGSGSGTEFTLTISSLQPDDFATYYCQQTKEVPWSFGQGTKVEVKR
modifications: drug-linker amide on lysine side chains, sites not stated; drug-linker amide on lysine side chains, sites not stated
CD33 antigen (human) [22]
  In vitro IC50 (3H-thymidine incorporation): 0.24 ng/mL
CD33 antigen (human) [18]
  Rel. Affinity: 1.07

B6: Conjugate of 4-(4-acetyl-2-methoxyphenoxy)butanoic acid (15) condensed with Calicheamicin N-acetyl gamma dimethyl hydrazide and h-P67.6 (antibody, V domains shown)
VH: EVQLVQSGAEVKKPGSSVKVSCKASGYTITDSNIHWVRQAPGQSLEWIGYIYPYNGGTDYNQKFKNRATLTVDNPTNTAYMELSSLRSEDTDFYYCVNGNPWLAYWGQGTLVTVSS
VL: DIQLTQSPSTLSASVGDRVTITCRASESLDNYGIRFLTWFQQKPGKAPKLLMYAASNQGSGVPSRFSGSGSGTEFTLTISSLQPDDFATYYCQQTKEVPWSFGQGTKVEVKR
modifications: drug-linker amide on lysine side chains, sites not stated; drug-linker amide on lysine side chains, sites not stated
CD33 antigen (human) [23]
  In vitro IC50 (3H-thymidine incorporation): 0.23 ng/mL
CD33 antigen (human) [18]
  Rel. Affinity: 0.78

B7: Conjugate of 4-(2-acetyl-5-methoxyphenoxy!butanoic acid (17) condensed with Calicheamicin N-acetyl gamma dimethyl hydrazide and h-P67.6 (antibody, V domains shown)
VH: EVQLVQSGAEVKKPGSSVKVSCKASGYTITDSNIHWVRQAPGQSLEWIGYIYPYNGGTDYNQKFKNRATLTVDNPTNTAYMELSSLRSEDTDFYYCVNGNPWLAYWGQGTLVTVSS
VL: DIQLTQSPSTLSASVGDRVTITCRASESLDNYGIRFLTWFQQKPGKAPKLLMYAASNQGSGVPSRFSGSGSGTEFTLTISSLQPDDFATYYCQQTKEVPWSFGQGTKVEVKR
modifications: drug-linker amide on lysine side chains, sites not stated; drug-linker amide on lysine side chains, sites not stated
CD33 antigen (human) [24]
  In vitro IC50 (3H-thymidine incorporation): 0.088 ng/mL
CD33 antigen (human) [18]
  Rel. Affinity: 0.98

B8: Conjugate of 4-4-(3-oxopropyl)phenoxy!butanoic acid (18) condensed with Calicheamicin N-acetyl gamma dimethyl hydrazide and h-P67.6 (antibody, V domains shown)
VH: EVQLVQSGAEVKKPGSSVKVSCKASGYTITDSNIHWVRQAPGQSLEWIGYIYPYNGGTDYNQKFKNRATLTVDNPTNTAYMELSSLRSEDTDFYYCVNGNPWLAYWGQGTLVTVSS
VL: DIQLTQSPSTLSASVGDRVTITCRASESLDNYGIRFLTWFQQKPGKAPKLLMYAASNQGSGVPSRFSGSGSGTEFTLTISSLQPDDFATYYCQQTKEVPWSFGQGTKVEVKR
modifications: drug-linker amide on lysine side chains, sites not stated; drug-linker amide on lysine side chains, sites not stated
CD33 antigen (human) [25]
  In vitro IC50 (3H-thymidine incorporation): 1.1 ng/mL
CD33 antigen (human) [18]
  Rel. Affinity: 0.8
